Data taken from patent US20140348865A1, “[…] ON AN HIV-1 V1V2 SITE-OF-VULNERABILITY” (The United States of America, as represented by the …, priority 2011, published 2014).

Tests used:
[1] = molecular target: 3468_V1_C12
[2] = molecular target: 3589_V1_C4
[3] = molecular target: 620345.c1
[4] = molecular target: BB201.B42
[5] = molecular target: BB539.2B13
[6] = molecular target: BI369.9A
[7] = molecular target: C1080.c3
[8] = molecular target: C3347.c11
[9] = molecular target: C4118.09
[10] = molecular target: CNE55
[11] = molecular target: Env of HIV-1 strain QH209 (pseudovirus) (HIV-1)
[12] = molecular target: KNH1209.18
[13] = molecular target: MB201.A1
[14] = molecular target: MS208.A1
[15] = molecular target: Q168.a2
[16] = molecular target: Q259.17
[17] = molecular target: Q769.d22
[18] = molecular target: Q842.d12
[19] = molecular target: TH966.8
[20] = molecular target: TH976.17
[21] = molecular target: UG037.8
[22] = molecular target: 0260.v5.c36 (HIV-1)
[23] = molecular target: 0330.v4.c3 (HIV-1)
[24] = molecular target: 0815_V3_C3 (HIV-1)
[25] = molecular target: 3301_V1_C24 (HIV-1)
[26] = molecular target: 3415.v1.c1 (HIV-1)
[27] = molecular target: 3468_V1_C12 (HIV-1)
[28] = molecular target: 3589_V1_C4 (HIV-1)
[29] = molecular target: 6095_V1_C10 (HIV-1)
[30] = molecular target: 620345.c1 (HIV-1)
[31] = molecular target: 6540.v4.c1 (HIV-1)
[32] = molecular target: 6545_V4_C1 (HIV-1)
[33] = molecular target: BB201.B42 (HIV-1)
[34] = molecular target: BB539.2B13 (HIV-1)
[35] = molecular target: BI369.9A (HIV-1)
[36] = molecular target: BS208.B1 (HIV-1)
[37] = molecular target: C1080.c3 (HIV-1)
[38] = molecular target: C3347.c11 (HIV-1)
[39] = molecular target: CNE3 (HIV-1)
[40] = molecular target: CNE5 (HIV-1)
[41] = molecular target: CNE55 (HIV-1)
[42] = molecular target: CNE59 (HIV-1)
[43] = molecular target: Env of HIV-1 strain 0439 (pseudovirus) (HIV-1)
[44] = molecular target: Env of HIV-1 strain 398 (pseudovirus) (HIV-1)
[45] = molecular target: Env of HIV-1 strain CNE56 (pseudovirus) (HIV-1)
[46] = molecular target: Env of HIV-1 strain QH209 (pseudovirus) (HIV-1); remark: listed apart in the source
[47] = molecular target: KER2008.12 (HIV-1)
[48] = molecular target: KER2018.11 (HIV-1)
[49] = molecular target: KNH1209.18 (HIV-1)
[50] = molecular target: M02138 (HIV-1)
[51] = molecular target: MB539.2B7 (HIV-1)
[52] = molecular target: MI369.A5 (HIV-1)
[53] = molecular target: MS208.A1 (HIV-1)
[54] = molecular target: Q168.a2 (HIV-1)
[55] = molecular target: Q23.17 (HIV-1)
[56] = molecular target: Q259.17 (HIV-1)
[57] = molecular target: Q461.e2 (HIV-1)
[58] = molecular target: Q769.h5 (HIV-1)
[59] = molecular target: Q842.d12 (HIV-1)
[60] = molecular target: R1166.c1 (HIV-1)
[61] = molecular target: R2184.c4 (HIV-1)
[62] = molecular target: R3265.c6 (HIV-1)
[63] = molecular target: RW020.2 (HIV-1)
[64] = molecular target: TH966.8 (HIV-1)
[65] = molecular target: TH976.17 (HIV-1)
[66] = molecular target: UG037.8 (HIV-1)

Substance: monoclonal antibody PG9
- neutralization IC50 [1]: 2.09 µg/mL
- neutralization IC50 [2]: 0.025 µg/mL
- neutralization IC50 [3]: 0.393 µg/mL
- neutralization IC50 [4]: 0.014 µg/mL
- neutralization IC50 [5]: 0.106 µg/mL
- neutralization IC50 [6]: 0.029 µg/mL
- neutralization IC50 [7]: 0.004 µg/mL
- neutralization IC50 [8]: 0.038 µg/mL
- neutralization IC50 [9]: 0.037 µg/mL
- neutralization IC50 [10]: 0.146 µg/mL
- neutralization IC50 [11]: > 50 µg/mL
- neutralization IC50 [12]: 0.367 µg/mL
- neutralization IC50 [13]: 0.024 µg/mL
- neutralization IC50 [14]: 0.071 µg/mL
- neutralization IC50 [15]: 0.106 µg/mL
- neutralization IC50 [16]: 0.045 µg/mL
- neutralization IC50 [17]: 0.007 µg/mL
- neutralization IC50 [18]: 0.005 µg/mL
- neutralization IC50 [19]: 0.042 µg/mL
- neutralization IC50 [20]: > 50 µg/mL
- neutralization IC50 [21]: 0.021 µg/mL
- neutralization IC80 [22]: 22.8 µg/mL
- neutralization IC80 [23]: 0.083 µg/mL
- neutralization IC80 [24]: > 50 µg/mL
- neutralization IC80 [25]: 1.51 µg/mL
- neutralization IC80 [26]: 0.77 µg/mL
- neutralization IC80 [27]: > 50 µg/mL
- neutralization IC80 [28]: 0.102 µg/mL
- neutralization IC80 [29]: 2.25 µg/mL
- neutralization IC80 [30]: > 50 µg/mL
- neutralization IC80 [31]: 0.213 µg/mL
- neutralization IC80 [32]: 0.315 µg/mL
- neutralization IC80 [33]: 0.046 µg/mL
- neutralization IC80 [34]: 0.422 µg/mL
- neutralization IC80 [35]: 0.151 µg/mL
- neutralization IC80 [36]: 0.098 µg/mL
- neutralization IC80 [37]: 0.011 µg/mL
- neutralization IC80 [38]: 0.168 µg/mL
- neutralization IC80 [39]: 1.12 µg/mL
- neutralization IC80 [40]: < 0.023 µg/mL
- neutralization IC80 [41]: 1.32 µg/mL
- neutralization IC80 [42]: 0.465 µg/mL
- neutralization IC80 [43]: > 50 µg/mL
- neutralization IC80 [44]: > 50 µg/mL
- neutralization IC80 [45]: > 50 µg/mL
- neutralization IC80 [46]: > 50 µg/mL
- neutralization IC80 [47]: 0.085 µg/mL
- neutralization IC80 [48]: 0.004 µg/mL
- neutralization IC80 [49]: > 50 µg/mL
- neutralization IC80 [50]: 1.36 µg/mL
- neutralization IC80 [51]: 0.383 µg/mL
- neutralization IC80 [52]: 0.364 µg/mL
- neutralization IC80 [53]: 0.589 µg/mL
- neutralization IC80 [54]: 0.342 µg/mL
- neutralization IC80 [55]: 0.02 µg/mL
- neutralization IC80 [56]: 0.229 µg/mL
- neutralization IC80 [57]: 29.9 µg/mL
- neutralization IC80 [58]: 0.007 µg/mL
- neutralization IC80 [59]: 0.021 µg/mL
- neutralization IC80 [60]: 9.24 µg/mL
- neutralization IC80 [61]: 1.75 µg/mL
- neutralization IC80 [62]: 9.8 µg/mL
- neutralization IC80 [63]: 0.622 µg/mL
- neutralization IC80 [64]: 0.183 µg/mL
- neutralization IC80 [65]: > 50 µg/mL
- neutralization IC80 [66]: 0.085 µg/mL

Substance: monoclonal antibody PG16
- neutralization IC50 [1]: 2.38 µg/mL
- neutralization IC50 [2]: 0.728 µg/mL
- neutralization IC50 [3]: > 50 µg/mL
- neutralization IC50 [4]: 0.003 µg/mL
- neutralization IC50 [5]: 0.012 µg/mL
- neutralization IC50 [6]: 0.007 µg/mL
- neutralization IC50 [7]: 0.001 µg/mL
- neutralization IC50 [8]: 0.006 µg/mL
- neutralization IC50 [9]: 0.021 µg/mL
- neutralization IC50 [10]: 1.37 µg/mL
- neutralization IC50 [11]: > 50 µg/mL
- neutralization IC50 [12]: 0.678 µg/mL
- neutralization IC50 [13]: 0.001 µg/mL
- neutralization IC50 [14]: 0.047 µg/mL
- neutralization IC50 [15]: 0.031 µg/mL
- neutralization IC50 [16]: 0.028 µg/mL
- neutralization IC50 [17]: 0.01 µg/mL
- neutralization IC50 [18]: 0.001 µg/mL
- neutralization IC50 [19]: 0.008 µg/mL
- neutralization IC50 [20]: > 50 µg/mL
- neutralization IC50 [21]: 0.001 µg/mL
- neutralization IC80 [22]: > 50 µg/mL
- neutralization IC80 [23]: 0.027 µg/mL
- neutralization IC80 [24]: > 50 µg/mL
- neutralization IC80 [25]: 0.397 µg/mL
- neutralization IC80 [26]: 0.342 µg/mL
- neutralization IC80 [27]: > 50 µg/mL
- neutralization IC80 [28]: 37.8 µg/mL
- neutralization IC80 [29]: 0.443 µg/mL
- neutralization IC80 [30]: > 50 µg/mL
- neutralization IC80 [31]: 0.154 µg/mL
- neutralization IC80 [32]: 0.562 µg/mL
- neutralization IC80 [33]: 0.008 µg/mL
- neutralization IC80 [34]: 0.062 µg/mL
- neutralization IC80 [35]: 0.037 µg/mL
- neutralization IC80 [36]: 0.012 µg/mL
- neutralization IC80 [37]: 0.004 µg/mL
- neutralization IC80 [38]: 0.031 µg/mL
- neutralization IC80 [39]: > 50 µg/mL
- neutralization IC80 [40]: < 0.023 µg/mL
- neutralization IC80 [41]: > 50 µg/mL
- neutralization IC80 [42]: > 50 µg/mL
- neutralization IC80 [43]: > 50 µg/mL
- neutralization IC80 [44]: > 50 µg/mL
- neutralization IC80 [45]: > 50 µg/mL
- neutralization IC80 [46]: > 50 µg/mL
- neutralization IC80 [47]: 0.046 µg/mL
- neutralization IC80 [48]: 0.002 µg/mL
- neutralization IC80 [49]: > 50 µg/mL
- neutralization IC80 [50]: 0.81 µg/mL
- neutralization IC80 [51]: 0.205 µg/mL
- neutralization IC80 [52]: 0.082 µg/mL
- neutralization IC80 [53]: 31.8 µg/mL
- neutralization IC80 [54]: 0.106 µg/mL
- neutralization IC80 [55]: 0.004 µg/mL
- neutralization IC80 [56]: 0.717 µg/mL
- neutralization IC80 [57]: > 50 µg/mL
- neutralization IC80 [58]: 0.02 µg/mL
- neutralization IC80 [59]: 0.006 µg/mL
- neutralization IC80 [60]: 12.5 µg/mL
- neutralization IC80 [61]: > 50 µg/mL
- neutralization IC80 [62]: 0.691 µg/mL
- neutralization IC80 [63]: 3.51 µg/mL
- neutralization IC80 [64]: 0.03 µg/mL
- neutralization IC80 [65]: > 50 µg/mL
- neutralization IC80 [66]: 0.004 µg/mL
